# Experiments:
# Assay in all cases: fluorescence anisotropy
# Conditions in all cases: 50 mM Tris-HCl pH 8.0, 50 mM NaCl, 1 mM DTT, 25 C; 200 nM protein, 5 nM 3'-fluorescein DNA
# [1] = biological target: RecQ E. coli (Escherichia coli) (UniProt P15043)
# [2] = biological target: BLM full-length (human) (UniProt P54132)
# [3] = biological target: BLM642-1290 (human) (UniProt P54132)
# Chain of BLM642-1290 (human) (P54132 642-1290): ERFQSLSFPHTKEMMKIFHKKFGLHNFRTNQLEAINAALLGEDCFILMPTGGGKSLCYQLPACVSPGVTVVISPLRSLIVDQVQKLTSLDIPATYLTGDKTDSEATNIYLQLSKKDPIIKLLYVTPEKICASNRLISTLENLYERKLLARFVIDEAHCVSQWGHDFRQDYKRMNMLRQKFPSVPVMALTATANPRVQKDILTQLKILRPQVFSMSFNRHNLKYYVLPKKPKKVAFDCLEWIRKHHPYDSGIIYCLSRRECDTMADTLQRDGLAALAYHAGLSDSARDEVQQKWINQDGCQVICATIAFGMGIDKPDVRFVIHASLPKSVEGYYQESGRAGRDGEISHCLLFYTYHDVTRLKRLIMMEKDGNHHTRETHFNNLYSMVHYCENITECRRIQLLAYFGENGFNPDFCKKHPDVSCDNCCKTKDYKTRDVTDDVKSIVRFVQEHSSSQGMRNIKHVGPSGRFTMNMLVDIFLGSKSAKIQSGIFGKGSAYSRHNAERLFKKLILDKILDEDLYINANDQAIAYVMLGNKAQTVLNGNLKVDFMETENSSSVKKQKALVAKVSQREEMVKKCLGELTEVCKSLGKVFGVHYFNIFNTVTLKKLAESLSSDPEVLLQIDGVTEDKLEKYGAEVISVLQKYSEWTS
# Chain of BLM full-length (human) (P54132 whole entry): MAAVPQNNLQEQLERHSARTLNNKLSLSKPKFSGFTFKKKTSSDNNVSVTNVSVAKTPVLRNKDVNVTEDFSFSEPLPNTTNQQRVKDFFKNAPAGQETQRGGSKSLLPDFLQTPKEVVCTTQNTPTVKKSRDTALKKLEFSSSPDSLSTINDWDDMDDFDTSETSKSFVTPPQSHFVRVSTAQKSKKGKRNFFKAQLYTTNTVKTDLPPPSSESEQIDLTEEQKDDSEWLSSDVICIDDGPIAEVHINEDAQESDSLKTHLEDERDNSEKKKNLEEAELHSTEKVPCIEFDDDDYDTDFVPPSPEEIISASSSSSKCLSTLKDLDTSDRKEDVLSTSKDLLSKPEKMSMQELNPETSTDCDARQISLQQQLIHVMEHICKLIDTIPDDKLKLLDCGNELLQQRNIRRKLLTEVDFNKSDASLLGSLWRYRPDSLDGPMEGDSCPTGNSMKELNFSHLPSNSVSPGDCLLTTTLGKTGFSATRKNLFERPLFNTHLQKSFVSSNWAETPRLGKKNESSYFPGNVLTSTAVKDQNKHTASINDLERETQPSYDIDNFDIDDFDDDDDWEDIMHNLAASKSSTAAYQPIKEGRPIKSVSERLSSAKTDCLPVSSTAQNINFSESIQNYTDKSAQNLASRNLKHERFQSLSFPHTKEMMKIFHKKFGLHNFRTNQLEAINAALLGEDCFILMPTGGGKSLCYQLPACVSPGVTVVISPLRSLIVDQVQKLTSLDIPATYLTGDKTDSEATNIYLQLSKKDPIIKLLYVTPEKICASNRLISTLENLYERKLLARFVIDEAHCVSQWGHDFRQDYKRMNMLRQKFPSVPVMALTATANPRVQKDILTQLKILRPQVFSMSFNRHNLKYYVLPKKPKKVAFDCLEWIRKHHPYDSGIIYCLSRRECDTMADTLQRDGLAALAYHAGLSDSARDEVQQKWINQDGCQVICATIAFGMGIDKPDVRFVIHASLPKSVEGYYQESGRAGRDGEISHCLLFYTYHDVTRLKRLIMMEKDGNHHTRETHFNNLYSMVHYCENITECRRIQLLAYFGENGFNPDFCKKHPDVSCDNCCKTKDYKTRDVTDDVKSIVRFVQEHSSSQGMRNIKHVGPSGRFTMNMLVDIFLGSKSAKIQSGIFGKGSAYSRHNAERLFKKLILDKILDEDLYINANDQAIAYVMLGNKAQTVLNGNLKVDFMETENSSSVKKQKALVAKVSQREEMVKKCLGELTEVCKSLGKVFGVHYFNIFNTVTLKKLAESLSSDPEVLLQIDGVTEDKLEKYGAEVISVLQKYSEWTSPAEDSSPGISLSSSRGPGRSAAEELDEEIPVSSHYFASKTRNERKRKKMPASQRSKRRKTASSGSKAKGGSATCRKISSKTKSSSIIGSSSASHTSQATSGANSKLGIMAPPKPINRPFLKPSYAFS
# Chain of RecQ E. coli (Escherichia coli) (P15043 whole entry): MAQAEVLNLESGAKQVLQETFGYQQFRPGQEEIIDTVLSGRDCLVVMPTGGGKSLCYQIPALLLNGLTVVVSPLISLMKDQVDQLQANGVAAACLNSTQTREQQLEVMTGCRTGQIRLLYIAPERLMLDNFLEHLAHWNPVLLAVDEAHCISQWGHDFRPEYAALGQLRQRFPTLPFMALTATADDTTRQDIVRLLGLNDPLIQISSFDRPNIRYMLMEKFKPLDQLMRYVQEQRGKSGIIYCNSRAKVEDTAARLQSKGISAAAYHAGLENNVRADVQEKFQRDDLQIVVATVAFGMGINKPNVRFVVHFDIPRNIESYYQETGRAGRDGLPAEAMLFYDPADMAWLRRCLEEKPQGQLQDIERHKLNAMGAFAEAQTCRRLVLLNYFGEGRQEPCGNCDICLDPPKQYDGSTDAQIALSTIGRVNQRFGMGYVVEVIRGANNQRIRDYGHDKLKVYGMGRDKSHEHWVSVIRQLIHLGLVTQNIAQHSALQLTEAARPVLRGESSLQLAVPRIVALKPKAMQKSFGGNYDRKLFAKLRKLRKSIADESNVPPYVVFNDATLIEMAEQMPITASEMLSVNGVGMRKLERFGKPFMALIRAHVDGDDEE
sequence,measurement,setting,value
GCCCTGCTGCCGACCAACGAAGGT (double strand) [F-24 ds],IC50,[1],44.1 µM
same,IC50,[2],6.84 µM
same,IC50,[3],8.17 µM

# — paper PMC4872126
